Data from patent US20130177572A1 (X BODY, published 2013).

Columns and labels:
[1] = biological target: T1, human PDGFR-hIgG1-Fc chimeric fusion protein (human, UniProt P09619 33-530); test: SPR (Biacore T100), PDGFR-Fc captured by anti-6His antibody, 1:1 model
T1 construct: For the IgG assay it was captured by an anti-6His antibody, which points to a His tag; also called recombinant human PDGFR-hIgG1-Fc chimeric fusion protein (R&D, #385-PR-100/CF); human PDGFRβ; not shown: human IgG1 Fc
Description: (§1) IgG1 to human PDFGR were determined using surface plasmon resonance on a Biacore T100. Briefly, recombinant human PDGFR-hIgG1-Fc chimeric fusion protein (R&D, #385-PR-100/CF) was immobilized on a Series CM5 sensorchip coupled with anti-hIgG1 Fc monoclonal antibody (for the VH and ScFv assays) or anti-6His antibody (for the IgG assay). […] The data was analyzed using the Biacore T100 analysis software using a 1:1 model. Mass transport was checked and avoided to allow accurate measurements. All data was double referenced according to Biacore standard protocol.

[2] = biological target: T1, human PDGFR-hIgG1-Fc chimeric fusion …; test: SPR (Biacore T100), PDGFR-Fc captured by anti-hIgG1 Fc, VH injected, 1:1 fit
Description: (§2) The R4 framework shuffled human and mouse PDGFRβ enriched VH domain pool selected in Example 2 was cloned into E. coli expression vectors, produced and purified. The binding kinetics of the VH domains to human and mouse PDFGR was determined using surface plasmon resonance on a Biacore T100. Briefly, human and mouse PDGFR-hIgG1-Fc chimeric fusion protein were separately immobilized using a Series CM5 sensorchip (CM5) coupled to anti-hIgG1 Fc monoclonal antibody. For each cycle, the PDGFR fusion protein was first captured, followed by the injection of VH for 115 seconds at a flow rate of 100 uL/min (association). Immediately following the association phase is a dissociation phase of 600 seconds. The surface was regenerated at each cycle with a single injection of 3M MgCl2 (10 uL/min, 60 seconds). Multiple concentrations of VH domain were injected (0.55 nM-40 nM) and the resulting sensorgram were analyzed with T100 Evaluation software. The binding kinetics was determined using 1:1 binding curve fitting.

[3] = biological target: T1, human PDGFR-hIgG1-Fc chimeric fusion …; test: SPR (Biacore T100), human PDGFR-hIgG1-Fc captured by anti-hIgG1 Fc, 1:1 fit
Description: as §2

[4] = biological target: T2, mouse PDGFR-hIgG1-Fc chimeric fusion protein (mouse; human, UniProt P05622 32-530, limits assumed); test: SPR (Biacore T100), mouse PDGFR-hIgG1-Fc captured by anti-hIgG1 Fc, 1:1 fit
T2 construct: also called mouse PDGFRβ; mouse PDFGR; not shown: human IgG1 Fc
T2 sequence (looked up): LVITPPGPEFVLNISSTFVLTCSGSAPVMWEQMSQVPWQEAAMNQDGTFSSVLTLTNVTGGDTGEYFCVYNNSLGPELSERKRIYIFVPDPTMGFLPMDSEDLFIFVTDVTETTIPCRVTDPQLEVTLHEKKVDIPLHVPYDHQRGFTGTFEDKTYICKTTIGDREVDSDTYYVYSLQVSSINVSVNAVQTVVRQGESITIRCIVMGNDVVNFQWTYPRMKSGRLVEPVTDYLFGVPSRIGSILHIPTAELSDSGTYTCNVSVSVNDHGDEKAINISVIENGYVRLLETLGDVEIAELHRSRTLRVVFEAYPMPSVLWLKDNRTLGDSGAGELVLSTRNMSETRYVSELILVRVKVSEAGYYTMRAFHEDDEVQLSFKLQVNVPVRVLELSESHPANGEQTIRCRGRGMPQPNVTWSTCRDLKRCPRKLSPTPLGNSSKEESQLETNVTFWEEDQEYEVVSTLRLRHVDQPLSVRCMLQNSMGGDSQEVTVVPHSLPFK
Description: as §2

[5] = biological target: T1, human PDGFR-hIgG1-Fc chimeric fusion …; test: SPR (Biacore T100), human PDGFR-hIgG1-Fc captured by anti-hIgG1 Fc, 1:1 fit; the text prints it rounded as 93 pM
Description: as §2

[6] = biological target: T1, human PDGFR-hIgG1-Fc chimeric fusion …; test: SPR (Biacore T100), PDGFR-Fc captured by anti-hIgG1 Fc, 1:1 model
Description: as §1

[7] = biological target: T1, human PDGFR-hIgG1-Fc chimeric fusion …; test: SPR competition (Biacore T100): captured PDGFR-Fc, VH 0.46-60 nM, then 10 nM PDGFBB
Description: Briefly, human PDGFR-hIgG1-Fc chimeric fusion protein was immobilized using a Series CM5 sensorchip coupled with anti-hIgG1 Fc monoclonal antibody. […] For each successive cycle, the PDGFR fusion protein was first captured then VH domain was then injected for 120 seconds. […] The surface was regenerated at each cycle with a single injection of 3M MgCl2 (10 uL/min, 60 seconds).

human PDGFRβ [8] = biological target: T3, human PDGFRβ (human, UniProt P09619 33-530, limits assumed); test: solution equilibrium binding: 35S-Met labelled in vitro translated protein, human PDGFRβ titrated (0 to 20 nM), capture on protein A beads, scintillation counts
T3 construct: also called hPDGFRβ; recombinant human PDGFRβ
T3 sequence (P09619 33-530 limits assumed): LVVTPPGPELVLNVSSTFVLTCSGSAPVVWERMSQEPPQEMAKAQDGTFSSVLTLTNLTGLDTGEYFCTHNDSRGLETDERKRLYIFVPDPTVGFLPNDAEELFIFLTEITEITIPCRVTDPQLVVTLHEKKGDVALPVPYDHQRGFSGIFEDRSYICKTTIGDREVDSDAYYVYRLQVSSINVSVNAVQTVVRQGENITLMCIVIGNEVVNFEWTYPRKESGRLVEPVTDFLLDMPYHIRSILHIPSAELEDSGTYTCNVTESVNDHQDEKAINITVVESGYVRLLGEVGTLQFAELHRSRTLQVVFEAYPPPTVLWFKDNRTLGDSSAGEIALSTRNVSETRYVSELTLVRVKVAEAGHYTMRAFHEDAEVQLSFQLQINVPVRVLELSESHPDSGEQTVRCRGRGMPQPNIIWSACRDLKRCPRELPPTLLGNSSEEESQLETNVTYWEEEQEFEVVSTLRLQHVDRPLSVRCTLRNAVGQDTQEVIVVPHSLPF
Description: The affinity of several scFvs was determined by solution based equilibrium binding assay. Specifically, 120 pmol of scFv RNA was translated into free protein with ³⁵S Met incorporated. The translated reaction mixture was 3-fold diluted in binding buffer containing 1×PBS with 0.025% triton, 1 mg/mL BSA and 0.1 mg/mL sssDNA. […] The diluted scFv mixture was incubated with hPDGFRβ in final volume of 100 ul on Kingfisher plates (Thermofisher Scientific, 97002084). Following incubation, 25 ul of protein A magnetic beads (Invitrogen) were used to capture the PDGFRβ from solution. The captured PDGFRβ was washed and eluted in kingfisher Reader (Thermofisher Scientific). The amount of scFv (labeled with ³⁵S Met) bound to the magnetic bead-immobilized hPDGFRβ was counted using a scintillation counter and the Kd was calculated with Graph Pad Prism 5.

human PDGFRβ [9] = biological target: T3, human PDGFRβ; test: ELISA: plate coated with 2 ug/mL human PDGFRβ or human IgG, crude scFv lysate, anti-flag-HRP, OD450
Description: (§3) A PDGFRβ binding ELISA assay was performed to assess the binding of the scFv to immobilized PDGFRβ and to determine the EC50. Specifically, 2 ug/mL of human PDGFRβ and human Fc or IgG in PBS was immobilized on Maxisorp plates at 4° C. overnight. The plate was then washed and blocked with superblock. In vitro translated crude scFv lysate was diluted 1:3 in 1×PBST. 100 ul of the diluted scFv lysate was loaded into each well of Maxisorp plates and incubated for 1 hour at room temperature. scFv that bound to immobilized PDGFRβ was detected by anti-flag antibody-HRP at 1:5000 dilution and a TMB substrate. The plate was read on a Molecular Device plate reader with end point assay at OD 450 nm.

mouse PDGFRβ = biological target: T4, mouse PDGFRβ (mouse, UniProt P05622 32-530, limits assumed); test: 35S-Met labelled in vitro translated VH, binding to target
T4 sequence (looked up): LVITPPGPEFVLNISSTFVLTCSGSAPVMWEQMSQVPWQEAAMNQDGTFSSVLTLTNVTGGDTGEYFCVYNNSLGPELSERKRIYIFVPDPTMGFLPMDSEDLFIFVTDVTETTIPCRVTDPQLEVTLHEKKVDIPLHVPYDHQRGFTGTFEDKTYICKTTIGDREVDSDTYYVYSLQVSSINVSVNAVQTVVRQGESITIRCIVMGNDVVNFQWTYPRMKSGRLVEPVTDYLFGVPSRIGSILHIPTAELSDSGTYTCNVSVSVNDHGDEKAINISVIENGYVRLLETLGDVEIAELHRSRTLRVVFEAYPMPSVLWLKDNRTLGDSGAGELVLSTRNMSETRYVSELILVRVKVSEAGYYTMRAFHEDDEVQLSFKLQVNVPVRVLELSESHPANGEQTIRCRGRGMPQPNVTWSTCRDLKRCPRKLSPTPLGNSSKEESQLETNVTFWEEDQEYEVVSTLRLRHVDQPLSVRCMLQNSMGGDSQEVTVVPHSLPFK

[10] = biological target: T1, human PDGFR-hIgG1-Fc chimeric fusion …; test: SPR (Biacore T100), PDGFR-hIgG1-Fc captured by anti-hIgG1 Fc, VH injected; series 0 to 120 in the legend box, unit inferred
human PDGFRβ [11] = biological target: T3, human PDGFRβ; test: solution equilibrium binding: 35S-Met labelled in vitro translated protein, human PDGFRβ titrated, capture on protein A beads, scintillation counts
Description: The affinity of several scFvs was determined by solution based equilibrium binding assay. Specifically, 120 pmol of scFv RNA was translated into free protein with ³⁵S Met incorporated. The translated reaction mixture was 3-fold diluted in binding buffer containing 1×PBS with 0.025% triton, 1 mg/mL BSA and 0.1 mg/mL sssDNA. Human PDGFRβ was diluted in the same binding buffer to final concentrations from 100 nM to 0 nM. The diluted scFv mixture was incubated with hPDGFRβ in final volume of 100 ul on Kingfisher plates (Thermofisher Scientific, 97002084). Following incubation, 25 ul of protein A magnetic beads (Invitrogen) were used to capture the PDGFRβ from solution. The captured PDGFRβ was washed and eluted in kingfisher Reader (Thermofisher Scientific). The amount of scFv (labeled with ³⁵S Met) bound to the magnetic bead-immobilized hPDGFRβ was counted using a scintillation counter and the Kd was calculated with Graph Pad Prism 5.

human PDGFRβ [12] = biological target: T3, human PDGFRβ; test: ELISA: plate coated with 2 ug/mL human PDGFRβ or human Fc, in vitro translated crude lysate diluted 1:3, anti-flag-HRP, OD450
Description: as §3

T1 sequence (P09619 33-530 limits assumed, stated change not applied): as the sequence (P09619 33-530 limits assumed) above

B1: XB2202/A4 IgG1 (antibody)
heavy: not shown
light: DVVMTQSPSSLSASVGDRVTITCQASQDISNWLNWYQQKPGKAPKLLIYEASNLETGVPSRFSGSGSGTDFTFTISSLQPEDIATYYCQQYNNVLRTFGQGTKVEIKRTVAAPSVFIFPPSDEQLKSGTKVEIKRTVAAPSVFIFPPSDEQLKSGTASVVCLLNNFYPREAKVQWKVDNALQSGNSQESVTEQDSKDSTYSLSSTLTLSKADYEKHKVYACEVTHQGLSSPVTKSFNRGEC
notes: Full-length heterotetrameric IgG1 expressed in 293T cells; also called XB2202/A4 IgG1 antibody
B1 was tested, and the Kd [1] was 1590 pM, the koff [1] was 0.00156 s⁻¹ and the kon [1] was 980000 M⁻¹ s⁻¹.

B2: XB2708 VH domain (other)
VH: QVQLVQSGGGVVQPGGSLRLSCAASGFTSRSYGMHWVRQAPGKGLEWVAFILFDGNNKYYADSVKGRFTISSDNSKNTLYLQMNSLRAEDTAVYYCATHGGDRSYWGQGTLVTVSS
notes: Isolated (unpaired) human VH domain, framework-shuffled derivative of XB1511; produced in E. coli for SPR
B2 showed a Kd [2] of 93 pM, a koff [2] of 0.000927 s⁻¹ and a kon [3] of 9.94e+06 M⁻¹ s⁻¹. The Kd [4] was 1080 pM, the koff [4] was 0.00692 s⁻¹ and the kon [4] was 6.41e+06 M⁻¹ s⁻¹. It also gave a Kd [5] of 93.3 pM.

B3: XB2202 VH domain (other)
VH: QVQLVQSGAEVKKPGSSVRVSCKASGGTFSRHAISWVRQAPGQGLEWIGGILPILKTPNYAQRFQGRVTINADESTSTVYMEMSSLRSEDTAVYYCATHGGDRSYWGQGTLVTVSS
notes: as for B2
B3 gave a Kd [6] of 227 pM, a koff [6] of 0.00295 s⁻¹ and a kon [6] of 1.3e+07 M⁻¹ s⁻¹. The Kd [2] was 249 pM, the koff [2] was 0.00186 s⁻¹ and the IC50 [7] was under 5000 pM. For the same binder, the Kd [3] was 243 pM, the koff [3] was 0.00175 s⁻¹ and the kon [3] was 7.19e+06 M⁻¹ s⁻¹. It also gave a Kd [4] of 925 pM, a koff [4] of 0.00289 s⁻¹ and a kon [4] of 3.13e+06 M⁻¹ s⁻¹. It also gave a Kd (human PDGFRβ [8]) of 234 pM.

B4: A5 (scFv, V domains shown)
VH: QVQLVQSGAEVKKPGSSVRVSCKASGGTFSRHAISWVRQAPGQGLEWIGGILPILKTPNYAQRFQGRVTINADESTSTVYMEMSSLRSEDTAVYYCATHGGDRSYWGQGTLVTVSS
VL: SYELTQPPSASASLGASVTLTCTVSSGYRSYEVDWFQQRPGKGPRFVMRVGTGGIVGSRGDGIPDRFSVWGSGLNRYLTIEDIQEEDESDYYCGADHGSGSNLVYVFGTGTKVTVL
notes: also called XB2202/A5 scFv
B4: no binding (human PDGFRβ [9]).

B5: C2 (scFv, V domains shown)
VH: QVQLVQSGAEVKKPGSSVRVSCKASGGTFSRHAISWVRQAPGQGLEWIGGILPILKTPNYAQRFQGRVTINADESTSTVYMEMSSLRSEDTAVYYCATHGGDRSYWGQGTLVTVSS
VL: DIQMTQSPSSLSASVGDRVAIACRPSQDIGTDLGWYQQKPGKAPKLLIFDSSTLQSGVPSRFSGSLSGTDFILTITNLQPEDFATYYCLQDYSFPYTFGQGTKLQIKR
notes: also called scFv XB2202-C2; XB2202/C2 scFv
B5 showed a Kd (human PDGFRβ [8]) of 18 pM.

B6: XB1511 VH domain (other)
VH: QVQLVQSGAEVKKPGSSVKVSCKASGGTFSSYAISWVRQAPGQGLEWMGGIIPIFGTANYAQKFQGRVTITADESTSTAYMELSSLRSEDTAVYYCAIHGGDRSYWGQGTLVTVSS
notes: Isolated (unpaired) human VH domain; also called clone A4; A4 XB1511
B6 was tested, and the binding result (mouse PDGFRβ) was “no binding (tested: 100 nM)”, the Kd [10] was 14700 pM and the Kd (human PDGFRβ [11]) was 31900 pM.

B7: C7 scFv (scFv, V domains shown)
VH: QVQLVQSGAEVKKPGSSVKVSCKASGGTFSSYAISWVRQAPGQGLEWMGGIIPIFGTANYAQKFQGRVTITADESTSTAYMELSSLRSEDTAVYYCAIHGGDRSYWGQGTLVTVSS
VL: DIVMTQTPLSLSVTPGQPASISCKSSQSLLHSDGKTHLFWYLQRPGQSPQLLIYEVSGRFSGVSERFSGSGSGTDFTLKISRVEAEDVGVYYCMQGLHIPHTFGQGTKVEIK
notes: VL of the second round pool paired with XB1511 VH
B7: binds (human PDGFRβ [12]).
